Source: US10613105 (FRAUNHOFER GESELLSCHAFT ZUR FORDERUNG DER ANGEWANDTEN …, dated 2020)

Biological target: TLR4 receptor complex expressed in the NIH 3T3 pNifty SEAP TLR4/CD14 reporter cell line
Experiment: cell-based or functional assay

Chain of TLR4 receptor complex expressed in the NIH 3T3 pNifty SEAP TLR4/CD14 reporter cell line (O00206 24-839, chain 1 of 2): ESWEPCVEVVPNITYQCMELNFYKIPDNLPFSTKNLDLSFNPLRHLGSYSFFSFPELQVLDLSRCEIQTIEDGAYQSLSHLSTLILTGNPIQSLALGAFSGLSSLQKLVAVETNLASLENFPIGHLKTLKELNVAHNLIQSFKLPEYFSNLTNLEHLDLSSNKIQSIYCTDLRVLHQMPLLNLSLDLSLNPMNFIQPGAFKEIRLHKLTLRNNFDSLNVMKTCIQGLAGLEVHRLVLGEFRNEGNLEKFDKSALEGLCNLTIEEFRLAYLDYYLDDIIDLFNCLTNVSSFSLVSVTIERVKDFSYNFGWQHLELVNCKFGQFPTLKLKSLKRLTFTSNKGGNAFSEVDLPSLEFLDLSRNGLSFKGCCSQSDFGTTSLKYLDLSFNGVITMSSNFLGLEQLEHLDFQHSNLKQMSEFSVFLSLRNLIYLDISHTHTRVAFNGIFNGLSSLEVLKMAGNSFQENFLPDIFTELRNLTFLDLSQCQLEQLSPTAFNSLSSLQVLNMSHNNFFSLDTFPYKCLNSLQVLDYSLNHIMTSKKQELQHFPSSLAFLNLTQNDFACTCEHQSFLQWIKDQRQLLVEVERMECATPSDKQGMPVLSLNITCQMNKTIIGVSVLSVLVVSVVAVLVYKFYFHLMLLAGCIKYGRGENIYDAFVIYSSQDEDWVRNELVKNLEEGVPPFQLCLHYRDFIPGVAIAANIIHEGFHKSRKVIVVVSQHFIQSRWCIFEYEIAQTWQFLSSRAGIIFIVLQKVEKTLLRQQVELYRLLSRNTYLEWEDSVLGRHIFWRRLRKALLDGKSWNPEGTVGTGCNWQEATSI
Chain of TLR4 receptor complex expressed in the NIH 3T3 pNifty SEAP TLR4/CD14 reporter cell line (P08571 20-345, chain 2 of 2, further chain): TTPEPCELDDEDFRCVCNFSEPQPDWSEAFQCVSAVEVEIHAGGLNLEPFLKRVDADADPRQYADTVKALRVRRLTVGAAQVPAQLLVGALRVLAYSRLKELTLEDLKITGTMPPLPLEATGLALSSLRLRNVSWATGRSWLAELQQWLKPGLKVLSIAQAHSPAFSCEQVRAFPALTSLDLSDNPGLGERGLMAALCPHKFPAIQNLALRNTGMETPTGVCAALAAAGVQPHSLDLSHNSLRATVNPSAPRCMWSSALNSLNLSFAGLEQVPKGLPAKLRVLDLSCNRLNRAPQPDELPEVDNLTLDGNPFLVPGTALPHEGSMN

Row | Binder | IC50 in the PAMP assay (SEAP reporter, NIH 3T3 pNifty SEAP TLR4/CD14 cells) [mM]
1 | KRKEVICRGSDDDYSFCRAL [KRKEVICRGSDDDYSFCRAL peptide (SEQ ID NO: 4)] | > 200
2 | KGETVNTTISFSFKGIKFSK [KGETVNTTISFSFKGIKFSK peptide (SEQ ID NO: 1)] | > 200

Other lines, results leading:

Row | IC50 in the PAMP assay (SEAP reporter, NIH 3T3 pNifty SEAP TLR4/CD14 cells) [mM] | Binder
3 | > 200 | GLLHIFYIPRRDLKQLYFNL [GLLHIFYIPRRDLKQLYFNL peptide (SEQ ID NO: 3)]
4 | > 200 | KMQYPISINVNPCIELKGSK [KMQYPISINVNPCIELKGSK peptide (SEQ ID NO: 2)]
